# Laboratory results taken from US20200002405A1.
# Read-outs that look alike come from different tables or passages of the source.
# B1: 25.10C (antibody, V domains shown)
# VH: QVQLQESGGGLVKPGGSLRLSCTASGFNFNKYNMNWVRQAPGKGLEWVSSISALSTYIYYADSLKGRFTVSRDNAKNSLFLQMNSLRDDDTAVYYCAREIRRASTWSADLWGRGTLVTVSS
# VL: DIQMTQSPSSLSASVGDRVIITCRASQSISSSLNWYQQKPGKAPKLLIYAAVNLETGVPSRFSGSGFGTDFTLAISNVQPEDFATYYCQQSDTRTFGRGTKLDVKR
# B2: 19.7E (antibody, V domains shown)
# VH: EVQLVESGGGLVRPGGSLRLSCAASGFSFSSYSMHWVRHVPGKGLVWVSYINSDGSTKIYADSVKGRFSISRDNAKNKLYLQMDSLRVEDTAVYSCVRLVHYDWSPFVWGQGTLVTVSS
# VL: EIVLTQSPSTLSASVGDRVTITCRASQSINNWLAWYQEKPGKAPKLLINKASSLESGVPSRFSGSGSGTEFTLTITSLQPDDFATYYCQQYNSNSWTFGQGTKVDMKR
# Legend:
# Assay in all cases: cell-based or functional assay
# [1] = target: LASV A19 (lineage II) glycoprotein (Lassa virus, strain A19)
# [2] = target: LASV Josiah (lineage IV) glycoprotein, full-length GP (Lassa virus, Josiah strain) (UniProt P08669)
# Sequence of LASV Josiah (lineage IV) glycoprotein, full-length GP (Lassa virus, Josiah strain) (P08669 2-491): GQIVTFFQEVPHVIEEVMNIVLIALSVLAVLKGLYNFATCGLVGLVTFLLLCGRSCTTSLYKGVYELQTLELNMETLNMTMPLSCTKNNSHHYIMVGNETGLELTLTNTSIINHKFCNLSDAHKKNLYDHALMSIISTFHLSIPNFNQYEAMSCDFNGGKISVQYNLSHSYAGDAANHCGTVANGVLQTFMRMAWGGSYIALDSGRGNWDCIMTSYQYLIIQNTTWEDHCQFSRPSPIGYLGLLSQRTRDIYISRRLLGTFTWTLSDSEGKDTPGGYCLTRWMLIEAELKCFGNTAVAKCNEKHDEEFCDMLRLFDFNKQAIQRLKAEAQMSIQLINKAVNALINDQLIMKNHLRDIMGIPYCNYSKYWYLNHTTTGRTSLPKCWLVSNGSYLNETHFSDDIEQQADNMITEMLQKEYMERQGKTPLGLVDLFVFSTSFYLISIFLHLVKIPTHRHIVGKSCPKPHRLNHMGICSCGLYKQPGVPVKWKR
# [3] = target: LASV 237 (lineage III) glycoprotein (Lassa virus, strain 237)
# [4] = target: LASV Pinneo (lineage I) glycoprotein (Lassa virus, strain Pinneo)
# [5] = target: LASV Josiah (lineage IV) glycoprotein, full-length GP (Lassa virus, Josiah strain) (UniProt P08669); remark: listed apart in the source
Binder,IC50 (neutralization) [1],IC80 (neutralization) [1],IC50 (neutralization) [2],IC80 (neutralization) [2],IC50 (neutralization) [3],IC80 (neutralization) [3],IC50 (neutralization) [4],IC80 (neutralization) [4],IC50 (neutralization) [5],IC80 (neutralization) [5]
B1,0.104 µg/mL,0.364 µg/mL,0.094 µg/mL,0.174 µg/mL,0.058 µg/mL,0.18 µg/mL,0.226 µg/mL,0.564 µg/mL,0.16 µg/mL,0.247 µg/mL
B2,> 20 µg/mL,> 20 µg/mL,5.91 µg/mL,> 20 µg/mL,1.06 µg/mL,15 µg/mL,1.56 µg/mL,3.27 µg/mL,1.19 µg/mL,> 10 µg/mL
